In patent US20230090014A1 (NANJING SANHOME PHARMACEUTICAL, published 2023):

B1: SHC025-26 (antibody, IgG1, V domains shown)
VH: QVQLKQSGAELVRPGASVKLSCKASGYIFTDYYMNWVKQRPGQGLEWIARIYPGSGLTYYNAKFKGKATVTAEKSSSTAYMQLSSLTSEDSAVYFCARCSYGSSFPHVWGTGTTVTVSS
VL: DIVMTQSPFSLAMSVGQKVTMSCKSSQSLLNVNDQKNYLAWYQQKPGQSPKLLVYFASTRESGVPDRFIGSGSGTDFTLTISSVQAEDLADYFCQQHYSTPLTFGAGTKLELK
notes: tested as culture supernatant
B2: AB6.12-IgG4P (antibody, V domains shown)
VH: QMQLVQSGAEVKKTGSSVKVSCKASGFNIKDYYLHWVRQAPGQALEWMGWIDPDQGDTEYAQKFQDRVTITRDRSMSTAYMELSSLRSEDTAMYYCNAAYGSSSYPMDYWGQGTTVTVSS
VL: NIQMTQSPSAMSASVGDRVTITCKASQDIHRYLSWFQQKPGKVPKHLIYRANRLVSGVPSRFSGSGSGTEFTLTISSLQPEDFATYYCLQYDEFPYTFGGGTKVEIKR
notes: Anti-CD47 control antibody from WO2013/119714; also called AB06.12-4P; AB06.12-P
B3: SHC025-34 (antibody, IgG2c, V domains shown)
VH: QVQLQQPGAELVKPGASVKMSCKASGYTFTNYWITWVKQRPGQGLEWIGDITPGRGETNYNEKFKSKATLTVDTSSSTAYMQLTSLTSEDSAVYYCSRWGLRRGDYWGQGTSVTVSS
VL: ENVLTQSPAIMSASPGEKVTMTCRASSSVSSSYLNWYQQKSGASPKLWIYSTSNLASGVPGRFSGSGSGTSYSLTISSVEAEDAATYYCQQYSGYPLTFGAGTKLEVK
notes: tested as culture supernatant
B4: Hu58A-14-PE (antibody, IgG4, V domains shown)
VH: EVQLLESGGGLVQPGGSLRLSCAASGFIFSRFGMAWVRQTPDKRLEWVATISSGGSYTYYPDSVKGRLTISRDNAKTTLYLQMRSLKSEDTAMYYCARQGLLDYLYALDYWGQGTAVTVSS
VL: DIQMTQSPSSVSASIGDRVTITCKASQDINSFLAWFQQKPGKSPRPLIYRAYRLVDGVPSRFSGVGSGQDYSLTISSLDYEDLGIYYCQQYVEFPPTFGAGTMLELK
notes: also called humanized anti-CD47 antibody Hu58A-14-PE
B5: SHC025-58 (antibody, IgG2b, V domains shown)
VH: EVQLVESGGDLVEPGGSLKLSCAASGFIFSRFGMAWVRQTPDKRLEWVATISSGGSYTYYPDSVKGRLTISRDNAKTTLYLQMRSLKSEDTAMYYCARQGLLDYLYALDYWGQGTAVTVSS
VL: DIKMIQSPSSMYAGLGERVTFNCKASQDINSFLCWFQQKPGKSPRPLIYRAYRLVDGVPSRFSGVGSGQDYSLTISSLDYEDLGIYYCQQYVEFPPTFGAGTMLELK
notes: tested as culture supernatant
B6: Hu26T-31-PE (antibody, IgG4, V domains shown)
VH: QVQLVQSGAEVKKPGASVKVSCKASGYTFTDYYMNWVRQAPGQGLEWIGRIYPGSGLTYYNAKFKGRATVTADKSTSTVYMELSSLRSEDTAVYYCARTSYGSSFPHVWGQGTTVTVSS
VL: DIQMTQSPSSLSASVGDRVTITCKSSQSLLNVNDQKNYLAWYQQKPGKAPKLLIYFASTRESGVPSRFSGSGSGTDFTLTISSLQPEDFATYYCQQHYSTPLTFGQGTKLEIK
notes: also called humanized anti-CD47 antibody Hu26T-31-PE
B7: ScFab (HuPL7-21Ks/Hu34-39Hs) (bispecific antibody)
chain 1: not shown
chain 2: EIVLTQSPGTLSLSPGERATLSCRASSSVSSSYLNWYQQKSGASPKLWIYSTSNLASGVPGRFSGSGSGTSYSLTISSVEAEDAATYYCQQYSGYPLTFGAGTKLEVKRTVAAPSVFIFPPSDEQLKSGTASVVCLLNNFYPREAKVQWKVDNALQSGNSQESVTEQDSKDSTYSLSSTLTLSKADYEKHKVYACEVTHQGLSSPVTKSFNRGECGGGGSGGGGSGGGGSGGGGSGGGGSGGGGSQVQLQESGPGLVKPSQTLSLTCKASGYTFTNYWITWVKQRPGQGLEWIGDITPGRGETNYNQKFKGRVTLTVDISASTAYMELSSLRSEDTAVYYCSRWGLRRGDYWGQGTSVTVSSASTKGPSVFPLAPCSRSTSESTAALGCLVKDYFPEPVTVSWNSGALTSGVHTFPAVLQSSGLYSLSSVVTVPSSSLGTKTYTCNVDHKPSNTKVDKRVESKYGPPCPPCPAPEFEGGPSVFLFPPKPKDTLMISRTPEVTCVVVDVSQEDPEVQFNWYVDGVEVHNAKTKPREEQFNSTYRVVSVLTVLHQDWLNGKEYKCKVSNKGLPSSIEKTISKAKGQPREPQVCTLPPSQEEMTKNQVSLSCAVKGFYPSDIAVEWESNGQPENNYKTTPPVLDSDGSFFLVSRLTVDKSRWQEGNVFSCSVMHEALHNHYTQKSLSLSLGK
notes: also called BiAb; Bi Ab
B8: ScFab (HuPL16-42Ks/Hu34-39Hs) (bispecific antibody)
chain 1: not shown
chain 2: EIVLTQSPGTLSLSPGERATLSCRASSSVSSSYLNWYQQKSGASPKLWIYSTSNLASGVPGRFSGSGSGTSYSLTISSVEAEDAATYYCQQYSGYPLTFGAGTKLEVKRTVAAPSVFIFPPSDEQLKSGTASVVCLLNNFYPREAKVQWKVDNALQSGNSQESVTEQDSKDSTYSLSSTLTLSKADYEKHKVYACEVTHQGLSSPVTKSFNRGECGGGGSGGGGSGGGGSGGGGSGGGGSGGGGSQVQLQESGPGLVKPSQTLSLTCKASGYTFTNYWITWVKQRPGQGLEWIGDITPGRGETNYNQKFKGRVTLTVDISASTAYMELSSLRSEDTAVYYCSRWGLRRGDYWGQGTSVTVSSASTKGPSVFPLAPCSRSTSESTAALGCLVKDYFPEPVTVSWNSGALTSGVHTFPAVLQSSGLYSLSSVVTVPSSSLGTKTYTCNVDHKPSNTKVDKRVESKYGPPCPPCPAPEFEGGPSVFLFPPKPKDTLMISRTPEVTCVVVDVSQEDPEVQFNWYVDGVEVHNAKTKPREEQFNSTYRVVSVLTVLHQDWLNGKEYKCKVSNKGLPSSIEKTISKAKGQPREPQVCTLPPSQEEMTKNQVSLSCAVKGFYPSDIAVEWESNGQPENNYKTTPPVLDSDGSFFLVSRLTVDKSRWQEGNVFSCSVMHEALHNHYTQKSLSLSLGK

How the values were obtained:
Human CD47-His protein [1] = biological target: T1, Human CD47-His protein (human, UniProt Q08722 19-136); assay: ELISA of hybridoma supernatant, binding activity to CD47
[2] = biological target: T2, CD47 on the surface of CHO-K1-E5 cells (human, UniProt Q08722 19-323); assay: FACS blocking assay on CHO-K1-E5 cells; blocked ligand SIRPα-Biotin, PE streptavidin
T2 construct: Full length CD47 expressed from pTargeT-CD47 in CHO-K1 cells; also called CD47 on cell surface; CHO-K1-hCD47

Cynomolgus CD47-His = biological target: T3, Cynomolgus CD47-His (cynomolgus, UniProt A0A2K5X523 19-139); assay: ELISA on coated cynomolgus CD47-His, anti-human IgG HRP, OD450
T3 construct: Bought protein; also called monkey CD47

Human CD47-His protein [3] = biological target: T1, Human CD47-His protein; assay: ELISA on coated human CD47-His, anti-human IgG HRP, OD450
CD47(19-136)-hFc = biological target: T4, CD47(19-136)-hFc (human, biotin-labelled in the Octet assay of Example 8 (sites not given)); assay: BLI (Fortebio Octet RED96), biotinylated CD47-hFc on SA sensor, antibody in solution
T4 construct: tied by name; also called CD47-hFc; CD47-hFc-Biotin

[4] = biological target: T2, CD47 on the surface of CHO-K1-E5 cells; assay: cell based ELISA on fixed CHO-K1-E5 cells, anti-human IgG HRP, OD450
PD-L1-mFc = PD-L1-mFc (UniProt Q9NZQ7 19-238, limits assumed); assay: competition ELISA on coated CD80-hFc; antibody mixed with PD-L1-mFc, bound PD-L1-mFc detected with anti-mouse IgG HRP, OD450; set-up: unit not given here
[5] = biological target: T2, CD47 on the surface of CHO-K1-E5 cells; assay: competition FACS on CHO-K1-hCD47 cells, SIRPα-biotin as competitor
Human CD47-His protein [6] = biological target: T1, Human CD47-His protein; assay: competition ELISA: CD47-His coated, SIRPα-biotin as competitor
[7] = biological target: T2, CD47 on the surface of CHO-K1-E5 cells; assay: FACS blocking assay on CHO-K1-hCD47 cells; blocked ligand SIRPα-biotin, PE-SA
[8] = biological target: T2, CD47 on the surface of CHO-K1-E5 cells; assay: FACS on CHO-K1-hCD47 cells, PE anti-human IgG
Human PD-L1-His protein = Human PD-L1-His protein (human, UniProt Q9NZQ7 19-238, limits assumed); assay: ELISA on coated human PD-L1-His, HRP anti-human IgG, OD450
[9] = biological target: T5, hPD-L1 on the surface of CHO-K1-hPD-L1 and Raji-hPD-L1 cells (human, UniProt Q9NZQ7 19-238); assay: FACS blocking assay on CHO-K1-hPD-L1 cells; blocked ligand PD-1-mFc (1 µg/mL), PE anti-mouse IgG
T5 construct: also called CHO-K1-PD-L1; human PD-L1 on cell surface

[10] = biological target: T5, hPD-L1 on the surface of CHO-K1-hPD-L1 …; assay: FACS on CHO-K1-hPD-L1 cells, PE anti-human IgG
Human PD-L1-hFC protein = Human PD-L1-hFC protein (human, UniProt Q9NZQ7 19-238, limits assumed); assay: competition ELISA on coated PD-L1-hFc; blocked ligand PD-1-mFc (1 µg/mL), anti-mouse IgG HRP, OD450
Human CD47-His protein [11] = biological target: T1, Human CD47-His protein; assay: ELISA on coated human CD47-His, HRP anti-human IgG, OD450
[12] = biological target: T2, CD47 on the surface of CHO-K1-E5 cells; assay: FACS on CHO-K1-hCD47 cells
Human CD47-His protein [13] = biological target: T1, Human CD47-His protein; assay: ELISA, human CD47-His coated

T5 sequence (Q9NZQ7 19-238): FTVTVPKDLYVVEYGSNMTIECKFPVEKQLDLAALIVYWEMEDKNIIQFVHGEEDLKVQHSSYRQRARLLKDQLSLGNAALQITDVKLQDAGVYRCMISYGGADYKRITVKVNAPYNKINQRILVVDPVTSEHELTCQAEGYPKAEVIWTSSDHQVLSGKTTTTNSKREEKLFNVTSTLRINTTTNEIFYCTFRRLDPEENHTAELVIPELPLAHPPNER
T4 sequence (chain, as listed by the source limits assumed): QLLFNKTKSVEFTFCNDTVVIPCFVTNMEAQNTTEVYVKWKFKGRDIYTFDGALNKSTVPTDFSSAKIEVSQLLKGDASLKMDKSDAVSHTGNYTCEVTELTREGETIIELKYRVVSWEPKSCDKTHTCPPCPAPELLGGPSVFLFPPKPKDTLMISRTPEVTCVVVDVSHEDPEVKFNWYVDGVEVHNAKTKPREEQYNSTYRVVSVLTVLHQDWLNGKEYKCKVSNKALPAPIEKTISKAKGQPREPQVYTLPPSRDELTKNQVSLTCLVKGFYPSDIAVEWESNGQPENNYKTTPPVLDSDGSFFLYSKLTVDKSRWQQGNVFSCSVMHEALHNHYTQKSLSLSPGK
Chain of PD-L1-mFc (Q9NZQ7 19-238 limits assumed): as the sequence (Q9NZQ7 19-238) above
Chain of Human PD-L1-hFC protein (Q9NZQ7 19-238 limits assumed): as the sequence (Q9NZQ7 19-238) above
Chain of Human PD-L1-His protein (Q9NZQ7 19-238 limits assumed): as the sequence (Q9NZQ7 19-238) above

| Binder | binding result (Human CD47-His protein [1]) | IC50 (read off the curve) [2] [nM] | EC50 (read off the curve) (Cynomolgus CD47-His) [nM] | EC50 (read off the curve) (Human CD47-His protein [3]) [nM] | Kd (CD47(19-136)-hFc) [nM] | koff (CD47(19-136)-hFc) [s⁻¹] | kon (CD47(19-136)-hFc) [M⁻¹ s⁻¹] | EC50 (read off the curve) [4] [nM] | other results |
| --- | --- | --- | --- | --- | --- | --- | --- | --- | --- |
| B1 | binds |  |  |  |  |  |  |  |  |
| B2 |  | ~1 | ~0.1 | ~0.08 | 0.101 | 0.000485 | 4.8e+06 | ~0.1 |  |
| B3 | binds |  |  |  |  |  |  |  |  |
| B4 |  | ~5 | ~0.1 | ~0.08 | 0.0946 | 0.000168 | 1.78e+06 | ~0.1 |  |
| B5 | binds |  |  |  |  |  |  |  |  |
| B6 |  | ~1 | ~0.1 | ~0.1 | 0.0587 | 6.13e-05 | 1.04e+06 | ~0.1 |  |
| B7 |  |  |  |  |  |  |  |  | IC50 (read off the curve) (PD-L1-mFc): ~10; fold increase of IC50 against Hu34-39-PE [5]: 3 times; fold increase of IC50 against Hu34-39-PE (Human CD47-His protein [6]): ~40 times; IC50 (read off the curve) [7]: ~8 nM; EC50 (read off the curve) [8]: ~10 nM; EC50 (read off the curve) (Human PD-L1-His protein): ~200 nM; IC50 (read off the curve) [9]: ~3 nM; EC50 (read off the curve) [10]: ~2 nM; IC50 (read off the curve) (Human PD-L1-hFC protein): ~1000 nM; EC50 (read off the curve) (Human CD47-His protein [11]): ~2000 nM; fold decrease of Emax against Hu34-39-PE [12]: ~2 times; fold increase of EC50 against Hu34-39-PE [12]: ~4 times; fold increase of binding EC50 against Hu34-39-PE (Human CD47-His protein [13]): 40 fold |
| B8 |  |  |  |  |  |  |  |  | fold increase of IC50 against Hu34-39-PE [5]: 3 times; fold increase of IC50 against Hu34-39-PE (Human CD47-His protein [6]): ~40 times; IC50 (read off the curve) [7]: ~5 nM; EC50 (read off the curve) [8]: ~10 nM; IC50 (read off the curve) [9]: ~5 nM; EC50 (read off the curve) [10]: ~2 nM; EC50 (read off the curve) (Human CD47-His protein [11]): ~2000 nM; fold decrease of Emax against Hu34-39-PE [12]: ~2 times; fold increase of EC50 against Hu34-39-PE [12]: ~4 times; fold increase of binding EC50 against Hu34-39-PE (Human CD47-His protein [13]): ~40 times |
